US20210122826A1 (MIT, published 2021)
Residue numbers refer to the chain shown, from its start. Each block holds one binder with its values, some of them ahead of it.

Tests used:
Assay in all cases: flow, Jurkat
[1] = molecular target: T1, Human Clec7A (human, UniProt Q9BXN2 1-247)
T1 construct: also called hClec7A
T1 sequence: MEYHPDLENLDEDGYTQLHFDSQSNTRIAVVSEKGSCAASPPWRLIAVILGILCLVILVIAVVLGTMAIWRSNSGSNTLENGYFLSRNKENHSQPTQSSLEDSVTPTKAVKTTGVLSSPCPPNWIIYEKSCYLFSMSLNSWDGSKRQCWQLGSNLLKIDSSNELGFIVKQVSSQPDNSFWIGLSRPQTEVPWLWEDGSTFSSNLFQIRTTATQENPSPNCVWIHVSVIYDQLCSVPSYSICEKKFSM

[2] = molecular target: T2, Human Clec9A (human, UniProt Q6UXN8 1-241)
T2 construct: also called hClec9A

[3] = molecular target: T3, Human Clec10A (human, UniProt Q8IUN9 1-316)
T3 construct: also called hClec10A
T3 sequence: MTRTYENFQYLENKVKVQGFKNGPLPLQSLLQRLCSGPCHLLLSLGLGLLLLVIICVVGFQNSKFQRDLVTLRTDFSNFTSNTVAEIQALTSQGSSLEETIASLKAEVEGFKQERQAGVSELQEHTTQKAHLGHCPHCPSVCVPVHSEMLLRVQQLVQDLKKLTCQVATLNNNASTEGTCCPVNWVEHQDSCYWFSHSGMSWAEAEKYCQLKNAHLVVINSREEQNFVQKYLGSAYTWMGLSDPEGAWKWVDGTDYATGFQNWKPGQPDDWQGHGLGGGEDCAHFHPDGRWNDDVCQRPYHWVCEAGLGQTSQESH

[4] = molecular target: T4, Human Clec4E (human, UniProt Q9ULY5 1-219)
T4 construct: also called hClec4E
T4 sequence: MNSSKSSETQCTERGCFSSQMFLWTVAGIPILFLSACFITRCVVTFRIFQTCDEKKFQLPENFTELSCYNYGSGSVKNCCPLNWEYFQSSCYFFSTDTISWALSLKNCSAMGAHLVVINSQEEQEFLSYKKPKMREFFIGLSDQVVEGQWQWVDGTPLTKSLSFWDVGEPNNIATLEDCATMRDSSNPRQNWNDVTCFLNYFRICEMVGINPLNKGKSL

[5] = molecular target: T5, Human Clec12B (human, UniProt Q2HXU8 1-276)
T5 construct: also called hClec12B
T5 sequence: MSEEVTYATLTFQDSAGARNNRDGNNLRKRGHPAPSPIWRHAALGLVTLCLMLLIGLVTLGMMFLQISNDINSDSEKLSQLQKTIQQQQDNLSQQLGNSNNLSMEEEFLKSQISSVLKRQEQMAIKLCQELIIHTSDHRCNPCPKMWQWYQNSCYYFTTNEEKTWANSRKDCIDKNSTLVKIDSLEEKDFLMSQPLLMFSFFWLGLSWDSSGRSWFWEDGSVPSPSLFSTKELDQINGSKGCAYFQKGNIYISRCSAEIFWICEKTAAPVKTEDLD

[6] = molecular target: T6, Human Clec5A (human, UniProt Q9NY25 1-188)
T6 construct: also called hClec5A
T6 sequence: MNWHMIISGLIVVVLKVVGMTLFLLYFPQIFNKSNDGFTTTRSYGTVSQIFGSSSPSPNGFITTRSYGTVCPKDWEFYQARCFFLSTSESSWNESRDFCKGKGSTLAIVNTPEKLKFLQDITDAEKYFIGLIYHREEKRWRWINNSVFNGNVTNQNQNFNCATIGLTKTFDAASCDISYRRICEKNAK

[7] = molecular target: T7, Human OLR1 (human, UniProt P78380 1-273)
T7 construct: also called hOLR1

[8] = molecular target: T8, Human CD94 (human, UniProt Q13241 1-179)
T8 construct: also called hCD94
T8 sequence: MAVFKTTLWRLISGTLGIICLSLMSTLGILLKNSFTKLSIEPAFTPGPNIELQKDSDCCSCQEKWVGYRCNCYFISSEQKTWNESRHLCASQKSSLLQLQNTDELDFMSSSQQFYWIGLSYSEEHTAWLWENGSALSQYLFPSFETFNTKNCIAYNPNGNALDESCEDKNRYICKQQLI

[9] = molecular target: T9, Human KLRF1 (human, UniProt Q9NZS2 1-231)
T9 construct: also called hKLRF1
T9 sequence: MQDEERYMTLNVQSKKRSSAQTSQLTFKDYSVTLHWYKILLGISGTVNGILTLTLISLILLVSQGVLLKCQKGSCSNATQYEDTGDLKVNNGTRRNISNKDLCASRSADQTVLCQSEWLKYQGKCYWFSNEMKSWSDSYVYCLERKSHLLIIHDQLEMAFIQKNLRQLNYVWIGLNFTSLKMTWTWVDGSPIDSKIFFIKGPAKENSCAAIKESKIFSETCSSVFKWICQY

[10] = molecular target: T10, Human CD209 (human, UniProt Q9NNX6 1-404)
T10 construct: also called hCD209
T10 sequence: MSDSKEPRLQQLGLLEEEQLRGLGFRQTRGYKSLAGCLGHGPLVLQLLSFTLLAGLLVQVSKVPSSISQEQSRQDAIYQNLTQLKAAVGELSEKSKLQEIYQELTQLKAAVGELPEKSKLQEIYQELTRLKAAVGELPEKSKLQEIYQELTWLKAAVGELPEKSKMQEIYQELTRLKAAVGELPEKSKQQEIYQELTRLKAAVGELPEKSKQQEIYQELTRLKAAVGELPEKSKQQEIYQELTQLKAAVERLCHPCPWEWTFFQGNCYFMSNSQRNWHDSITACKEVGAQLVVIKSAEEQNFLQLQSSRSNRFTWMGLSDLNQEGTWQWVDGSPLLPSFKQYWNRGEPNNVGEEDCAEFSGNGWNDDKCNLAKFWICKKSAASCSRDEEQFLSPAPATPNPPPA

[11] = molecular target: T11, Human KLRG1 (human, UniProt Q96E93 1-195)
T11 construct: also called hKLRG1
T11 sequence: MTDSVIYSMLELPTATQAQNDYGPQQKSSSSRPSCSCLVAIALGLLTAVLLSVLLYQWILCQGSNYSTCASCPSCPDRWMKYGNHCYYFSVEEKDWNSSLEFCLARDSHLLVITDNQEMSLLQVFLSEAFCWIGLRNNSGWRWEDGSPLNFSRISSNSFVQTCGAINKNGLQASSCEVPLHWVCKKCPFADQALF

[12] = molecular target: T12, Human KLRF2 (human, UniProt D3W0D1 1-207)
T12 construct: also called hKLRF2
T12 sequence: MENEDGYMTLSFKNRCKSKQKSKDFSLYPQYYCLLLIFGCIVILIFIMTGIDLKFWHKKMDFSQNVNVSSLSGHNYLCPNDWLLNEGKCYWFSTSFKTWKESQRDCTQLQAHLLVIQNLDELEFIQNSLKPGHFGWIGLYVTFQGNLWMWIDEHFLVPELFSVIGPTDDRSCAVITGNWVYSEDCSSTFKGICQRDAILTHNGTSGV

T2 sequence (Q6UXN8 whole entry): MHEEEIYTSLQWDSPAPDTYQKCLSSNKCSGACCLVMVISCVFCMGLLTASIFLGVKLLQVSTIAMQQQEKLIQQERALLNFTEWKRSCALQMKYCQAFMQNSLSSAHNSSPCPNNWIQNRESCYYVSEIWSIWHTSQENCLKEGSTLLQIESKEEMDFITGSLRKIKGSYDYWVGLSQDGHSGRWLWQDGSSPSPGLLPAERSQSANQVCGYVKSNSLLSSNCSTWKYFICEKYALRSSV

- binding result [1]: no binding (tested: 100 nM)
- binding result [2]: no binding (tested: 100 nM)
- binding result [3]: no binding (tested: 100 nM)
- binding result [4]: no binding (tested: 100 nM)
- binding result [5]: no binding (tested: 100 nM)
- binding result [6]: no binding (tested: 100 nM)
- binding result [7]: no binding (tested: 100 nM)
- binding result [8]: no binding (tested: 100 nM)
- binding result [9]: no binding (tested: 100 nM)
- binding result [10]: no binding (tested: 100 nM)
- binding result [11]: no binding (tested: 100 nM)
- binding result [12]: no binding (tested: 100 nM)
B1: KW1.2.1 (antibody, V domains shown)
VH: EVQLVESGGGLVQPGGSLRLSCAASGSTFSSYAMSWVRQAPGKGLEWVSTISGSGGSTYYADSVKGRFTISRDNSRNTLYLQMNSLRAEDTAVYYCARGGLIPSGFDYWGQGTLVTVSS
VL: DIQMTQSPSSPSASVGDRVTITCRASQSISSYLNWYQQKPGKAPKLLIYAASSLLSGVPSRFSGSGSGTDFTLTISSLQPEDFATYYCQQTYSTPLTFGQGTKVEIK

- binding result [1]: no binding (tested: 100 nM)
- binding result [2]: no binding (tested: 100 nM)
- binding result [3]: no binding (tested: 100 nM)
- binding result [4]: no binding (tested: 100 nM)
- binding result [5]: no binding (tested: 100 nM)
- binding result [6]: no binding (tested: 100 nM)
- binding result [7]: no binding (tested: 100 nM)
- binding result [8]: no binding (tested: 100 nM)
- binding result [9]: no binding (tested: 100 nM)
- binding result [10]: no binding (tested: 100 nM)
- binding result [11]: no binding (tested: 100 nM)
- binding result [12]: no binding (tested: 100 nM)
B2: KM12.2.3 (antibody, human IgG1, V domains shown)
VH: EVQLVESGGGLVQPGGSLRLSCAASGFTFSSYAMSWIRQAPGKGLEWVSAISGSGGSIYYADSVKGRFTISRDNSKNTLYLQMNSLRAEDTAVYYCARGYSDSYFYGPYYTFDYWGQGTLVTVSS
VL: B1 VL with P11L, S28G, L55Q, P59S, T91S, S93N

- binding result [1]: no binding (tested: 100 nM)
- binding result [2]: no binding (tested: 100 nM)
- binding result [3]: no binding (tested: 100 nM)
- binding result [4]: no binding (tested: 100 nM)
- binding result [5]: no binding (tested: 100 nM)
- binding result [6]: no binding (tested: 100 nM)
- binding result [7]: no binding (tested: 100 nM)
- binding result [8]: no binding (tested: 100 nM)
- binding result [9]: no binding (tested: 100 nM)
- binding result [10]: no binding (tested: 100 nM)
- binding result [11]: no binding (tested: 100 nM)
- binding result [12]: no binding (tested: 100 nM)
B3: KW1.3.12 (antibody, human IgG1, V domains shown)
VH: B1 VH with S27F
VL: B1 VL with P11L, T94A

- binding result [1]: no binding (tested: 100 nM)
- binding result [2]: no binding (tested: 100 nM)
- binding result [3]: no binding (tested: 100 nM)
- binding result [4]: no binding (tested: 100 nM)
- binding result [5]: no binding (tested: 100 nM)
- binding result [6]: no binding (tested: 100 nM)
- binding result [7]: no binding (tested: 100 nM)
- binding result [8]: no binding (tested: 100 nM)
- binding result [9]: no binding (tested: 100 nM)
- binding result [10]: no binding (tested: 100 nM)
- binding result [11]: no binding (tested: 100 nM)
- binding result [12]: no binding (tested: 100 nM)
B4: KW7.3.7 (antibody, V domains shown)
VH: B1 VH with S27F, T50A, I51T, V64A, R76K, L101Y, I102L, S104D, G105A, Q111R
VL: B1 VL with P11L, R24W, K39E, L55Q

- binding result [1]: no binding (tested: 100 nM)
- binding result [2]: no binding (tested: 100 nM)
- binding result [3]: no binding (tested: 100 nM)
- binding result [4]: no binding (tested: 100 nM)
- binding result [5]: no binding (tested: 100 nM)
- binding result [6]: no binding (tested: 100 nM)
- binding result [7]: no binding (tested: 100 nM)
- binding result [8]: no binding (tested: 100 nM)
- binding result [9]: no binding (tested: 100 nM)
- binding result [10]: no binding (tested: 100 nM)
- binding result [11]: no binding (tested: 100 nM)
- binding result [12]: no binding (tested: 100 nM)
B5: KM12.4.7 (antibody, V domains shown)
VH: B2 VH with S21P, N84D
VL: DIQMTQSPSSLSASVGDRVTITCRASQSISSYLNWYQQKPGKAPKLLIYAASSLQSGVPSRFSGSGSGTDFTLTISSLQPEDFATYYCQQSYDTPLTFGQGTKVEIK

- binding result [1]: no binding (tested: 100 nM)
- binding result [2]: no binding (tested: 100 nM)
- binding result [3]: no binding (tested: 100 nM)
- binding result [4]: no binding (tested: 100 nM)
- binding result [5]: no binding (tested: 100 nM)
- binding result [6]: no binding (tested: 100 nM)
- binding result [7]: no binding (tested: 100 nM)
- binding result [8]: no binding (tested: 100 nM)
- binding result [9]: no binding (tested: 100 nM)
- binding result [10]: no binding (tested: 100 nM)
- binding result [11]: no binding (tested: 100 nM)
- binding result [12]: no binding (tested: 100 nM)
B6: KW7.2.2 (antibody, V domains shown)
VH: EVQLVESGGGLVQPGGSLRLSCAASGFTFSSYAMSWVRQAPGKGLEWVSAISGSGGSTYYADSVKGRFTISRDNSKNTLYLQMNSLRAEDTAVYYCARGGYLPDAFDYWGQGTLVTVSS
VL: B1 VL with P11L, K45R, L46F, L55Q
